From patent publication US20220363757A1

Tests used:
[1] = target: cynomolgus LAG-3 ECD human IgG1 Fc fusion (cynomolgus; human) (UniProt P18627); test: SPR, Fab over captured LAG-3 ECD-Fc
[2] = target: human LAG-3 ECD human IgG1 Fc fusion (human) (UniProt P18627); test: SPR, Fab over captured LAG-3 ECD-Fc
[3] = target: human LAG-3 domain 1-2 Fc fusion, chimeric construct #11 (mutated region AA 74-82) (human) (UniProt P18627); test: SPR, Fab over captured mutant LAG-3-Fc
[4] = target: human LAG-3 domain 1-2 Fc fusion, chimeric construct #16 (mutated region AA 98-105) (human) (UniProt P18627); test: SPR, Fab over captured mutant LAG-3-Fc
human LAG-3 domain 1-2 Fc fusion, chimeric construct #16 (mutated region AA 98-105) (human), sequence (P18627 other isoform, or with tags, fused parts or gaps mutant): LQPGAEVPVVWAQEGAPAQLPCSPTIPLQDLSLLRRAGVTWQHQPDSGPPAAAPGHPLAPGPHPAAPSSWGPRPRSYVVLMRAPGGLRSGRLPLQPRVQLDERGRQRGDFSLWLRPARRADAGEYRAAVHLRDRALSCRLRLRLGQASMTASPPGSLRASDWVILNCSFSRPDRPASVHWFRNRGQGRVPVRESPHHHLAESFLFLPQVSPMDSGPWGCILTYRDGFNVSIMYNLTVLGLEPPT

[5] = target: human LAG-3 domain 1-2 Fc fusion, chimeric construct #17 (mutated region AA 114-117) (human) (UniProt P18627); test: SPR, Fab over captured mutant LAG-3-Fc
[6] = target: human LAG-3 domain 1-2 Fc fusion, chimeric construct #2 (mutated region AA 29-30) (human) (UniProt P18627); test: SPR, Fab over captured mutant LAG-3-Fc
[7] = target: human LAG-3 domain 1-2 Fc fusion, chimeric construct #23 (mutated region AA 148-152) (human) (UniProt P18627); test: SPR, Fab over captured mutant LAG-3-Fc
human LAG-3 domain 1-2 Fc fusion, chimeric construct #23 (mutated region AA 148-152) (human), sequence (P18627 other isoform, or with tags, fused parts or gaps mutant): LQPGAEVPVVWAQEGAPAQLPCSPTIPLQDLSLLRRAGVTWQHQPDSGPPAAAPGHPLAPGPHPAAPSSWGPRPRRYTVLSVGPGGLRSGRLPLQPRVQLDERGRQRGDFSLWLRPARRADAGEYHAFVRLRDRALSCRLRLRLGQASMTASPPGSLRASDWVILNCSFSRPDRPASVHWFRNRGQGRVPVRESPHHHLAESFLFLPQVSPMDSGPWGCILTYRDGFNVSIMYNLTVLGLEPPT

[8] = target: human LAG-3 domain 1-2 Fc fusion, chimeric construct #24 (mutated region AA 148-154) (human) (UniProt P18627); test: SPR, Fab over captured mutant LAG-3-Fc
[9] = target: human LAG-3 domain 1-2 Fc fusion, chimeric construct #4 (mutated region AA 40-47) (human) (UniProt P18627); test: SPR, Fab over captured mutant LAG-3-Fc
human LAG-3 domain 1-2 Fc fusion, chimeric construct #4 (mutated region AA 40-47) (human), sequence (P18627 other isoform, or with tags, fused parts or gaps mutant): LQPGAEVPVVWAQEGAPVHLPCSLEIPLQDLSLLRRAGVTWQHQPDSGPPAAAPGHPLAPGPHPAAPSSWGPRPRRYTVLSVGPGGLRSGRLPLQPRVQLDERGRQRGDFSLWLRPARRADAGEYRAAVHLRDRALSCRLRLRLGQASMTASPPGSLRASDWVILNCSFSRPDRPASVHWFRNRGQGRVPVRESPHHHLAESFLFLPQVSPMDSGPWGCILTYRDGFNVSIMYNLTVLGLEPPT

[10] = target: human LAG-3 domain 1-2 Fc fusion, chimeric construct #9 (mutated region AA 66-71) (human) (UniProt P18627); test: SPR, Fab over captured mutant LAG-3-Fc
human LAG-3 domain 1-2 Fc fusion, chimeric construct #9 (mutated region AA 66-71) (human), sequence (P18627 other isoform, or with tags, fused parts or gaps mutant): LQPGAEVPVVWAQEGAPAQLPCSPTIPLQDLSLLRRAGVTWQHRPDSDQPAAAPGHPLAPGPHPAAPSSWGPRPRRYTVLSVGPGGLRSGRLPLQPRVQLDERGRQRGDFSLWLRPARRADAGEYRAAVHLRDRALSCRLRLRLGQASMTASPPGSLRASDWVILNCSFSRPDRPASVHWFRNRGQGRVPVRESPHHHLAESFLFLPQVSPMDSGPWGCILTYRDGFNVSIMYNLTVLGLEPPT

[11] = target: human LAG-3 domain 1-2 Fc fusion, point mutation #15 Q64A (human) (UniProt P18627); test: SPR, Fab over captured mutant LAG-3-Fc
human LAG-3 domain 1-2 Fc fusion, point mutation #15 Q64A (human), sequence (P18627 23-266 Q64A): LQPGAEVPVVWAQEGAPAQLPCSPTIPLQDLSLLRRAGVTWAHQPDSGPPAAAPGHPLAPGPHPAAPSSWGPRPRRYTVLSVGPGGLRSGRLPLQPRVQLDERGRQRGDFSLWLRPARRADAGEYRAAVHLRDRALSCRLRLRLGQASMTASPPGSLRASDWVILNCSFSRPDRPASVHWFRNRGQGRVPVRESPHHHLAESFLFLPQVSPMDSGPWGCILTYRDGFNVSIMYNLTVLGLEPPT

[12] = target: human LAG-3 domain 1-2 Fc fusion, point mutation #20 A73S (human) (UniProt P18627); test: SPR, Fab over captured mutant LAG-3-Fc
human LAG-3 domain 1-2 Fc fusion, point mutation #20 A73S (human), sequence (P18627 23-266 A73S): as the sequence (P18627 23-266 Q64A) above, with A42Q, A51S counted along it

[13] = target: human LAG-3 domain 1-2 Fc fusion, point mutation #22 A75S (human) (UniProt P18627); test: SPR, Fab over captured mutant LAG-3-Fc
human LAG-3 domain 1-2 Fc fusion, point mutation #22 A75S (human), sequence (P18627 23-266 A75S): as the sequence (P18627 23-266 Q64A) above, with A42Q, A53S counted along it

[14] = target: human LAG-3 domain 1-2 Fc fusion, point mutation #26 P79A (human) (UniProt P18627); test: SPR, Fab over captured mutant LAG-3-Fc
human LAG-3 domain 1-2 Fc fusion, point mutation #26 P79A (human), sequence (P18627 23-266 P79A): as the sequence (P18627 23-266 Q64A) above, with A42Q, P57A counted along it

[15] = target: human LAG-3 domain 1-2 Fc fusion, point mutation #29 P82A (human) (UniProt P18627); test: SPR, Fab over captured mutant LAG-3-Fc
[16] = target: human LAG-3 domain 1-2 Fc fusion, point mutation #35 A88S (human) (UniProt P18627); test: SPR, Fab over captured mutant LAG-3-Fc
[17] = target: human LAG-3 domain 1-2 Fc fusion, point mutation #37 S90A (human) (UniProt P18627); test: SPR, Fab over captured mutant LAG-3-Fc
human LAG-3 domain 1-2 Fc fusion, point mutation #37 S90A (human), sequence (P18627 23-266 S90A): as the sequence (P18627 23-266 Q64A) above, with A42Q, S68A counted along it

[18] = target: human LAG-3 domain 1-2 Fc fusion, point mutation #47 T100A (human) (UniProt P18627); test: SPR, Fab over captured mutant LAG-3-Fc
human LAG-3 domain 1-2 Fc fusion, point mutation #47 T100A (human), sequence (P18627 23-266 T100A): as the sequence (P18627 23-266 Q64A) above, with A42Q, T78A counted along it

[19] = target: human LAG-3 domain 1-2 Fc fusion, point mutation #49 G105A (human) (UniProt P18627); test: SPR, Fab over captured mutant LAG-3-Fc
human LAG-3 domain 1-2 Fc fusion, point mutation #49 G105A (human), sequence (P18627 23-266 G105A): as the sequence (P18627 23-266 Q64A) above, with A42Q, G83A counted along it

[20] = target: human LAG-3 domain 1-2 Fc fusion, point mutation #5 P46A (human) (UniProt P18627); test: SPR, Fab over captured mutant LAG-3-Fc
[21] = target: human LAG-3 domain 1-2 Fc fusion, point mutation #50 P106A (human) (UniProt P18627); test: SPR, Fab over captured mutant LAG-3-Fc
[22] = target: human LAG-3 domain 1-2 Fc fusion, point mutation #51 G107A (human) (UniProt P18627); test: SPR, Fab over captured mutant LAG-3-Fc
human LAG-3 domain 1-2 Fc fusion, point mutation #51 G107A (human), sequence (P18627 23-266 G107A): as the sequence (P18627 23-266 Q64A) above, with A42Q, G85A counted along it

[23] = target: human LAG-3 domain 1-2 Fc fusion, point mutation #52 G108A (human) (UniProt P18627); test: SPR, Fab over captured mutant LAG-3-Fc
[24] = target: human LAG-3 domain 1-2 Fc fusion, point mutation #57 R113A (human) (UniProt P18627); test: SPR, Fab over captured mutant LAG-3-Fc
human LAG-3 domain 1-2 Fc fusion, point mutation #57 R113A (human), sequence (P18627 23-266 R113A): as the sequence (P18627 23-266 Q64A) above, with A42Q, R91A counted along it

[25] = target: human LAG-3 domain 1-2 Fc fusion, point mutation #66 G126A (human) (UniProt P18627); test: SPR, Fab over captured mutant LAG-3-Fc
human LAG-3 domain 1-2 Fc fusion, point mutation #66 G126A (human), sequence (P18627 23-266 G126A): as the sequence (P18627 23-266 Q64A) above, with A42Q, G104A counted along it

[26] = target: human LAG-3 domain 1-2 Fc fusion, point mutation #67 R127A (human) (UniProt P18627); test: SPR, Fab over captured mutant LAG-3-Fc
human LAG-3 domain 1-2 Fc fusion, point mutation #67 R127A (human), sequence (P18627 23-266 R127A): as the sequence (P18627 23-266 Q64A) above, with A42Q, R105A counted along it

[27] = target: human LAG-3 domain 1-2 Fc fusion, point mutation #68 Q128A (human) (UniProt P18627); test: SPR, Fab over captured mutant LAG-3-Fc
[28] = target: human LAG-3 domain 1-2 Fc fusion, point mutation #7 P49A (human) (UniProt P18627); test: SPR, Fab over captured mutant LAG-3-Fc
[29] = target: human LAG-3 domain 1-2 Fc fusion, point mutation #71 D131A (human) (UniProt P18627); test: SPR, Fab over captured mutant LAG-3-Fc
human LAG-3 domain 1-2 Fc fusion, point mutation #71 D131A (human), sequence (P18627 23-266 D131A): as the sequence (P18627 23-266 Q64A) above, with A42Q, D109A counted along it

[30] = target: human LAG-3 domain 1-2 Fc fusion, point mutation #75 R141A (human) (UniProt P18627); test: SPR, Fab over captured mutant LAG-3-Fc
[31] = target: human LAG-3 domain 1-2 Fc fusion, point mutation #79 S159A (human) (UniProt P18627); test: SPR, Fab over captured mutant LAG-3-Fc
[32] = target: human LAG-3 domain 1-2 Fc fusion, point mutation #80 R163A (human) (UniProt P18627); test: SPR, Fab over captured mutant LAG-3-Fc

human LAG-3 ECD human IgG1 Fc fusion (human), sequence (P18627 23-450): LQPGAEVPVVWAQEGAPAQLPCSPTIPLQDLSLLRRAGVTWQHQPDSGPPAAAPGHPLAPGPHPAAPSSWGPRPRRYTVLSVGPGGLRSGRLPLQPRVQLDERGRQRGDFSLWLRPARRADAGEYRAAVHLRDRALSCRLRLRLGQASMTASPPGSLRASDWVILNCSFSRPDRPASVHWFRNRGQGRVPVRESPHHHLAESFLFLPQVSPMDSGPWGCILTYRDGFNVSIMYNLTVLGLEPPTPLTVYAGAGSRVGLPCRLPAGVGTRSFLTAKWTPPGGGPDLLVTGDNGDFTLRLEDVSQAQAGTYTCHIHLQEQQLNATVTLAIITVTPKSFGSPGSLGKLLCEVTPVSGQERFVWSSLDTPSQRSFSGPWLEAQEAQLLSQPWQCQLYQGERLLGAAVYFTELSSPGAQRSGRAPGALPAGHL
cynomolgus LAG-3 ECD human IgG1 Fc fusion (cynomolgus; human), sequence (P18627 other isoform, or with tags, fused parts or gaps, form in doubt): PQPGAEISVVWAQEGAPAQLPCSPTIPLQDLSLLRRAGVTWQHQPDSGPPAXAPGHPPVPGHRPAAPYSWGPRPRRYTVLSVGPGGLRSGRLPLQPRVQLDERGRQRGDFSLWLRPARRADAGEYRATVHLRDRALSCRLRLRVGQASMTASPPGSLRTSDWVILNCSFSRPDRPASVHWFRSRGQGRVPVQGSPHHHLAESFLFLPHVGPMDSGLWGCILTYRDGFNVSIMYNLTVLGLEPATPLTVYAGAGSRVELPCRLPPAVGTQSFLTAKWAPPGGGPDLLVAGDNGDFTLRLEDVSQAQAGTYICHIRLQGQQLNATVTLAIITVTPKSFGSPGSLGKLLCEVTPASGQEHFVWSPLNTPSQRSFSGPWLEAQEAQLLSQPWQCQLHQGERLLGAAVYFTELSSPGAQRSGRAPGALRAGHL

Substance: Fab fragment of 25F7-Lag3.5 analogue
- Kd [1]: 910 nM
- koff [1]: 0.0038 s⁻¹
- kon [1]: 4200 M⁻¹ s⁻¹
- Kd [2]: 8.5 nM
- koff [2]: 0.0012 s⁻¹
- kon [2]: 140000 M⁻¹ s⁻¹
- KD mutant/KD wild type [3]: 1.1 fold
- KD mutant/KD wild type [4]: 1.7 fold
- KD mutant/KD wild type [5]: 1.3 fold
- KD mutant/KD wild type [6]: 1.2 fold
- KD mutant/KD wild type [7]: 0.8 fold
- KD mutant/KD wild type [8]: 0.7 fold
- KD mutant/KD wild type [9]: 1.3 fold
- KD mutant/KD wild type [10]: 1.3 fold
- KD mutant/KD wild type [11]: 1.3 fold
- KD mutant/KD wild type [12]: 0.8 fold
- KD mutant/KD wild type [13]: 0.9 fold
- KD mutant/KD wild type [14]: 0.8 fold
- KD mutant/KD wild type [15]: 0.9 fold
- KD mutant/KD wild type [16]: 3.5 fold
- KD mutant/KD wild type [17]: 1 fold
- KD mutant/KD wild type [18]: 1.2 fold
- KD mutant/KD wild type [19]: 1 fold
- KD mutant/KD wild type [20]: 1.1 fold
- KD mutant/KD wild type [21]: 1 fold
- KD mutant/KD wild type [22]: 0.8 fold
- KD mutant/KD wild type [23]: 0.9 fold
- KD mutant/KD wild type [24]: 0.8 fold
- KD mutant/KD wild type [25]: 0.9 fold
- KD mutant/KD wild type [26]: 0.7 fold
- KD mutant/KD wild type [27]: 0.7 fold
- KD mutant/KD wild type [28]: 1.1 fold
- KD mutant/KD wild type [29]: 1.2 fold
- KD mutant/KD wild type [30]: 0.8 fold
- KD mutant/KD wild type [31]: 0.8 fold
- KD mutant/KD wild type [32]: 1 fold
